PMC7105311, “Structure and function of Bs164 β-mannosidase from Bacteroides salyersiae the founding member of glycoside hydrolase family GH164” (The Journal of Biological Chemistry, 2019)

Molecular target: Bs164 β-mannosidase from Bacteroides salyersiae CL02T12C01 (His6 tag removed) (Bacteroides salyersiae CL02T12C01)
Assay: SEC-MALS; Superdex S200 10/300, 80 mM MES (pH 5.5), 200 mM NaCl, room temperature (20 ± 2 °C), 100 μl injected at 5 mg/ml

stoichiometry N: 3
Substance: Bs164 β-mannosidase from Bacteroides salyersiae CL02T12C01 (His6 tag removed) (enzyme)
